# B1: D-lyxose isomerase from Thermofilum sp. (TsLI) (enzyme, Thermofilum sp. ex4484_79)
# chain: MLTKELVKEAREKAIRMLEKACIAITDEEKEKIEVTDFGLGVLYTFGLEILVYVNNERYCAKELVMFPRQICPEHRHPPIGSYLGKQETFRCRWGEVYLYVPGTPTPNPRARIPEEKKRYFTVWHEIVLRPGEQYTIPPNTLHWFQAGDEGAIVSEFSSQSIDEKDIFTDPNVKRIPEIV
# notes: locus tag B6U94_07925; synthetic gene cloned into pET19b; subunit about 23 kDa; Homodimer; in the crystal the two monomers are joined by a disulfide bond between C22 of each subunit; No removal of the His tag is described; also called T. sp; LI; source: E. coli Rosetta (DE3) pLysS, purified (heat precipitation at 75°C, Ni-NTA, SEC)
# Target: the molecule itself
# Assay: SEC; calibrated Superdex 200 pg HiLoad 16/600, 25 mM Tris-HCl pH 8.0, 150 mM NaCl, 1.0 ml/min; apparent molecular mass ~46 kDa
protein,measurement,value
B1,stoichiometry N,2

# Source: publication PMC8378251, “Biochemical and Structural Characterisation of a Novel D-Lyxose Isomerase From the Hyperthermophilic Archaeon Thermofilum sp” (Frontiers in Bioengineering and Biotechnology, 2021)
